Experiment: Area under the curve (AUC) and increase ratio (ER) of FD-4 in plasma after oral administration to Wistar rats
Description: Next, FD-4 was orally administered to Wistar rats using an oral sonde so that the dosage was 0.3 mg/kg. After the administration of the sample, blood was collected six times in total until six hours after the administration of the sample, and plasma was fractionated.
It is noted that “AUCt” is AUC (ng·h/mL) of the test preparation, and “dosage t” is dosage (mg/kg) of the test preparation (target data of the test preparation obtained in the above 2).

fluorescein isothiocyanate-dextran 4 [Comparative Example 4]
AUC (Wistar rats, FD-4 dosage 0.3 mg/kg, up to 6 hr, linear trapezoidal method): 24.3 ng·h/mL | AUCs (reference data of standard preparation) (rat, FD-4 dosage 0.3 mg/kg): 24.3 ng·h/mL | AUC (rat, FD-4 dosage 5.0 mg/kg): 390.5 ng·h/mL
